The test system of the data set is healthy donor BMMC. Kind of data set: Colony forming unit (CFU) assay. The data set is classed as cell-based, human. The note with it: 24 hours treatment, colonies at 14 days. The protocol:
The potency of HT12-GL ADC (HT12-GL-SG3932) was compared to CD33 Mylotarg ADC and isotype ADC in colony forming unit (CFU) assays. For colony forming unit assays, primary healthy donor samples and AML patient samples were subjected to a dose titration of HT12-GL ADC (HT12-GL-SG3932), Isotype ADC, or Mylotarg for 24 hours. Cells were subsequently mixed in Methocult (StemCell) and seeded in 6-well SmartDish's (StemCell). Colonies were counted at 14 days post-seeding using a STEMvision instrument (StemCell). EC50 values were calculated based on the reduction of colonies following drug treatment compared to control groups.

This is an account of results in US20250051463A1, “CD123 ANTIBODY-DRUG CONJUGATES AND METHODS OF USING THE SAME” (ASTRAZENECA AB, priority 2023, published 2025).

With “Mylotarg: CD33 ADC Mylotarg [reference compound]”, the “CFU toxicity in healthy donor BMMC” value was “toxic”.
